The values that follow come from PMC6509256.

Test [1] concerns the target PcVps75ΔC (residues 1-223), crystallised as a dimer (Pneumocystis carinii). Nature of the test: crystal structure.
The target of test [2] is PcVps75ΔCM-SeMet (residues 1-223, E56 and N127 mutated to methionine, selenomethionine-labeled), cry (Pneumocystis carinii). Description: crystal structure.

With “PcVps75ΔC (residues 1-223), crystallised as a dimer (domain or fragment)”, the stoichiometry N in test [1] worked out at 2.
“PcVps75ΔCM-SeMet (residues 1-223, E56 and N127 mutated to methionine, selenomethionine-labeled), cry (domain or fragment)” returned a stoichiometry N in test [2] of 4.
